Results reported in patent US20170137467A1 (CHROMOTEK, published 2017).
Square brackets hold non-standard residues; d marks the D form. GABA = NCCCC(=O)O

T1: BC2T A6P (human)
T1 construct: position 6 library (BC2TA6X), row P
T1 peptide: Ac-PDRKAPVSHWQQ-NH2

T2: BC2T A6Q (human)
T2 construct: position 6 library (BC2TA6X), row Q
T2 peptide: Ac-PDRKAQVSHWQQ-NH2

T3: BC2T A6C(Abu) (human, SMILES …)
T3 construct: position 6 library (BC2TA6X), row C(Abu) / C*
T3 peptide: Ac-PDRKA[GABA]VSHWQQ-NH2

T4: BC2T A6D (human)
T4 construct: position 6 library (BC2TA6X), row D
T4 peptide: Ac-PDRKADVSHWQQ-NH2

T5: BC2T V7S (human)
T5 construct: position 7 library, row S
T5 peptide: Ac-PDRKAASSHWQQ-NH2

T6: BC2T V7N (human)
T6 construct: position 7 library, row N
T6 peptide: Ac-PDRKAANSHWQQ-NH2

T7: BC2T V7C(Abu) (human, also: Abu described as gamma-amino butyric acid)
T7 construct: position 7 library, row C(Abu) / C*
T7 peptide: Ac-PDRKAA[GABA]SHWQQ-NH2

T8: BC2T V7E (human)
T8 construct: position 7 library, row E
T8 peptide: Ac-PDRKAAESHWQQ-NH2

T9: BC2T P1N (human)
T9 construct: position 1 library, row N
T9 peptide: Ac-NDRKAAVSHWQQ-NH2

T10: BC2T P1Y (human)
T10 construct: position 1 library, row Y
T10 peptide: Ac-YDRKAAVSHWQQ-NH2

T11: BC2T P1D (human)
T11 construct: position 1 library, row D
T11 peptide: Ac-DDRKAAVSHWQQ-NH2

T12: BC2T D2F (human)
T12 construct: position 2 library, row F
T12 peptide: Ac-PFRKAAVSHWQQ-NH2

T13: BC2T D2C(Abu) (human, SMILES …)
T13 construct: position 2 library, row C(Abu) / C*
T13 peptide: Ac-P[GABA]RKAAVSHWQQ-NH2

T14: BC2T R3P (human)
T14 construct: position 3 library (BC2TR3X), row P
T14 peptide: Ac-PDPKAAVSHWQQ-NH2

T15: BC2T R3W (human)
T15 construct: position 3 library (BC2TR3X), row W
T15 peptide: Ac-PDWKAAVSHWQQ-NH2

T16: BC2T R3N (human)
T16 construct: position 3 library (BC2TR3X), row N
T16 peptide: Ac-PDNKAAVSHWQQ-NH2

T17: BC2T R3K (human)
T17 construct: position 3 library (BC2TR3X), row K
T17 peptide: Ac-PDKKAAVSHWQQ-NH2

T18: BC2T K4R (human)
T18 construct: position 4 library, row R
T18 peptide: Ac-PDRRAAVSHWQQ-NH2

T19: BC2T A5F (human)
T19 construct: position 5 library, row F
T19 peptide: Ac-PDRKFAVSHWQQ-NH2

T20: BC2T A5T (human)
T20 construct: position 5 library, row T
T20 peptide: Ac-PDRKTAVSHWQQ-NH2

T21: BC2T A5H (human)
T21 construct: position 5 library, row H
T21 peptide: Ac-PDRKHAVSHWQQ-NH2


Tests used:
Experiment in all cases: library pulldown, LC-MS of supernatant; ratio vs GFP-Nb control (0=captured, 1=not captured)
BC2T A6P = target: T1, BC2T A6P
Method in brief: (§1)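 Unbound peptide left in supernatant after 1 h pulldown in PBS/0.01% CHAPS measured by reversed-phase LC-MS (8–30% eluent B gradient, 20 min).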

BC2T A6Q = target: T2, BC2T A6Q
Method in brief: as §1

BC2T A6C(Abu) = target: T3, BC2T A6C(Abu)
Method in brief: as §1

BC2T A6D = target: T4, BC2T A6D
Method in brief: as §1

BC2T V7S = target: T5, BC2T V7S
Method in brief: as §1

BC2T V7N = target: T6, BC2T V7N
Method in brief: as §1

BC2T V7C(Abu) = target: T7, BC2T V7C(Abu)
Method in brief: as §1

BC2T V7E = target: T8, BC2T V7E
Method in brief: as §1

BC2T P1N = target: T9, BC2T P1N
Method in brief: as §1

BC2T P1Y = target: T10, BC2T P1Y
Method in brief: as §1

BC2T P1D = target: T11, BC2T P1D
Method in brief: as §1

BC2T D2F = target: T12, BC2T D2F
Method in brief: as §1

BC2T D2C(Abu) = target: T13, BC2T D2C(Abu)
Method in brief: as §1

BC2T R3P = target: T14, BC2T R3P
Method in brief: as §1

BC2T R3W = target: T15, BC2T R3W
Method in brief: as §1

BC2T R3N = target: T16, BC2T R3N
Method in brief: as §1

BC2T R3K = target: T17, BC2T R3K
Method in brief: as §1

BC2T K4R = target: T18, BC2T K4R
Method in brief: as §1

BC2T A5F = target: T19, BC2T A5F
Method in brief: as §1

BC2T A5T = target: T20, BC2T A5T
Method in brief: as §1

BC2T A5H = target: T21, BC2T A5H
Method in brief: as §1

Row | ratio (BC2T A6P) | ratio (BC2T A6Q) | ratio (BC2T A6C(Abu)) | ratio (BC2T A6D) | ratio (BC2T V7S) | ratio (BC2T V7N) | ratio (BC2T V7C(Abu)) | ratio (BC2T V7E) | ratio (BC2T P1N) | ratio (BC2T P1Y) | ratio (BC2T P1D) | ratio (BC2T D2F) | ratio (BC2T D2C(Abu)) | ratio (BC2T R3P) | ratio (BC2T R3W) | ratio (BC2T R3N) | ratio (BC2T R3K) | ratio (BC2T K4R) | ratio (BC2T A5F) | ratio (BC2T A5T) | Binder | further results
1 | 1.1 | 1 | 0.1 | 1 | 0.3 | 0.2 | 0.2 | 0.4 | 0.6 | 0.1 | 1 | 0.2 | 0.1 | 0.8 | 0.8 | 0.7 | 0.2 | 0.1 | 0.1 | 0.1 | BC2 nanobody (BC2-Nb) (VHH, immobilised on agarose/sepharose beads in this assay; also called BC2 nanotrap (immobilised form); not shown: C-terminal 6xHis-tag added by pHEN6 vector) VHH: QVQLVESGGGLVQPGGSLTLSCTASGFTLDHYDIGWFRQAPGKEREGVSCINNSDDDTYYADSVKGRFTIFMDNAKDTVYLQMNSLKPEDTAIYYCAEARGCKRGRYEYDFWGQGTQVTVSS | ratio (BC2T A5H): 0.2
2 | 1 | 0.9 | 0.3 | 1 | 0.4 | 0.4 | 0.5 | 0.8 | 0.7 | 0.3 | 0.8 | 0.3 | 0.3 | 1 | 1 | 1 | 0.5 | 0.1 | 0.2 | 0.3 | BC2-NbR106S (VHH, immobilised on beads in this assay; not shown: C-terminal 6xHis-tag added by pHEN6 vector) VHH: QVQLVESGGGLVQPGGSLTLSCTASGFTLDHYDIGWFRQAPGKEREGVSCINNSDDDTYYADSVKGRFTIFMDNAKDTVYLQMNSLKPEDTAIYYCAEARGCKRGSYEYDFWGQGTQVTVSS | ratio (BC2T A5H): 0.3
